Results from publication PMC2937010.

Molecular target: RMI1 OB2 domain (C-terminal OB fold of RMI1, residues 473-625) (human) (UniProt Q9H9A7)
Assay: SEC

**Q.** “RMI2 (RMI core complex, wild type) (natural protein)” was tested. Which stoichiometry N did it give?
**A.** 1
